Measurements as given in publication PMC2975025 (Developmental cell, 2010).

T1: KR-mutant CHC hub (K1163E and R1165D) (bovine, UniProt P49951 1074-1675, K1163E | R1165D)
T1 sequence (looked up): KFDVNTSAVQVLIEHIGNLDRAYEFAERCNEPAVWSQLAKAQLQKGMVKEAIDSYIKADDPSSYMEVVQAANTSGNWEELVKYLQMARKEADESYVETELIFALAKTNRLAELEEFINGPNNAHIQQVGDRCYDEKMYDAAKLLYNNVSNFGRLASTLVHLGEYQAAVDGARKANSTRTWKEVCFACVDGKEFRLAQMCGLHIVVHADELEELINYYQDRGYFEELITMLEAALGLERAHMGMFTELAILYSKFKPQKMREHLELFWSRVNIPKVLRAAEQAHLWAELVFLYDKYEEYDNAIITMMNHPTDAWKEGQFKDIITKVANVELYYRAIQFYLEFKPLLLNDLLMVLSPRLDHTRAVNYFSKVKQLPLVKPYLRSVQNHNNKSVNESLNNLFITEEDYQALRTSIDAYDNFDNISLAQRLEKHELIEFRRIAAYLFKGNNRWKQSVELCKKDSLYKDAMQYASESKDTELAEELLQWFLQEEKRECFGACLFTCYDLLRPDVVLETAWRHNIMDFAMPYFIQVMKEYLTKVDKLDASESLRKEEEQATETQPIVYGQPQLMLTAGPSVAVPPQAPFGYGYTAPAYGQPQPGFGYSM

B1: Bovine clathrin heavy chain residues 1074–1675 (hub), wild type (domain or fragment, UniProt P49951 1074-1675, looked up)
chain: KFDVNTSAVQVLIEHIGNLDRAYEFAERCNEPAVWSQLAKAQLQKGMVKEAIDSYIKADDPSSYMEVVQAANTSGNWEELVKYLQMARKKARESYVETELIFALAKTNRLAELEEFINGPNNAHIQQVGDRCYDEKMYDAAKLLYNNVSNFGRLASTLVHLGEYQAAVDGARKANSTRTWKEVCFACVDGKEFRLAQMCGLHIVVHADELEELINYYQDRGYFEELITMLEAALGLERAHMGMFTELAILYSKFKPQKMREHLELFWSRVNIPKVLRAAEQAHLWAELVFLYDKYEEYDNAIITMMNHPTDAWKEGQFKDIITKVANVELYYRAIQFYLEFKPLLLNDLLMVLSPRLDHTRAVNYFSKVKQLPLVKPYLRSVQNHNNKSVNESLNNLFITEEDYQALRTSIDAYDNFDNISLAQRLEKHELIEFRRIAAYLFKGNNRWKQSVELCKKDSLYKDAMQYASESKDTELAEELLQWFLQEEKRECFGACLFTCYDLLRPDVVLETAWRHNIMDFAMPYFIQVMKEYLTKVDKLDASESLRKEEEQATETQPIVYGQPQLMLTAGPSVAVPPQAPFGYGYTAPAYGQPQPGFGYSM

Assays:
[1] = molecular target: the molecule itself; experiment: crystal structure
[2] = molecular target: B1; experiment: SPR
[3] = molecular target: T1, KR-mutant CHC hub (K1163E and R1165D); experiment: SPR

Kd [2] [nM]	Kd [3] [nM]	Binder	stoichiometry N [1]
		B1	3
25	59.1	Human neuronal LCb, his-tagged fusion protein, wild type (natural protein, UniProt P09497 1-229, looked up) MADDFGFFSSSESGAPEAAEEDPAAAFLAQQESEIAGIENDEGFGAPAGSHAAPAQPGPTSGAGSEDMGTTVNGDVFQEANGPADGYAAIAQADRLTQEPESIRKWREEQRKRLQELDAASKVTEQEWREKAKKDLEEWNQRQSEQVEKNKINNRIADKAFYQQPDADIIGYVASEEAFVKESKEETPGTEWEKVAQLCDFNPKSSKQCKDVSRLRSVLMSLKQTPLSR	
